In the Immune Epitope Database (IEDB):

Assays:
Assay in all cases: IEDB peptide-MHC binding, purified MHC/competitive/radioactivity; filed as Kd, often an IC50 or EC50 that approximates it; ≥ and ≤ were set here for values at or beyond the usual limits of such assays
Settings in all cases: source organism: Toxoplasma gondii
HLA-B*07:02 = molecular target: HLA-B*07:02
HLA-B*35:01 = molecular target: HLA-B*35:01
HLA-B*35:03 = molecular target: HLA-B*35:03
HLA-B*42:01 = molecular target: HLA-B*42:01
HLA-B*51:01 = molecular target: HLA-B*51:01
HLA-B*53:01 = molecular target: HLA-B*53:01
HLA-B*54:01 = molecular target: HLA-B*54:01

HPGSVNEFDF
Kd (HLA-B*07:02): 3.62 µM
Kd (HLA-B*35:01): 2.09 µM
Kd (HLA-B*35:03): 11.5 µM
Kd (HLA-B*42:01): 0.877 µM
Kd (HLA-B*51:01): 14.7 µM
Kd (HLA-B*53:01): 5.52 µM
Kd (HLA-B*54:01): 0.854 µM
